# B1: HDV Ribozyme (parent)
# chain: GGCCGGCAUGGUCCCAGCCUCCUCGCUGGCGCCGGCUGGGCAACAUUCCGAGGGGACCGUCCCCUCGGUAAUGGCGAAUGGGACCCA
# Variants of: B1
# Experiment: self-cleavage, relative activity (ratio to wild type); higher = more cleavage; co-transcriptional
row,Variant,self-cleavage
1,C15G U23A,0.68
2,C15G U23C,0.332
3,C15G U37A,0
4,C15G U37C,0.875
5,C15G U37G,0
6,C15G U46A,0.399
7,C15G U47A,0.723
8,C15G U60G,0.712
9,C15G U69C,0.65
10,C15U A16C,1.33
11,C15U A16G,1.05
12,C15U A43G,0.138
13,C15U A45C,0.277
14,C15U A77C,0.185
15,C15U A78C,0.166
16,C15U A83G,0.45
17,C15U A83U,0.26
18,C15U C18U,0.44
19,C15U C19G,0.0997
20,C15U C19U,0.0767
21,C15U C21G,0.0898
22,C15U C24U,0.717
23,C15U C26A,1.05
24,C15U C30G,0.0707

row,Variant,self-cleavage
1,C15U C36A,0.208
2,C15U C44U,0.707
3,C15U C49U,0.997
4,C15U C61G,0.898
5,C15U C64A,0.636
6,C15U C85A,0.962
7,C15U C85U,0.906
8,C15U G17U,0.415
9,C15U G28A,0.0692
10,C15U G29A,0.154
11,C15U G29U,0.0594
12,C15U G31C,0.208
13,C15U G31U,0.248
14,C15U G34C,0.268
15,C15U G34U,0.293
16,C15U G39A,0.151
17,C15U G39C,0.0639
18,C15U G52C,1.03
19,C15U G52U,1.21
20,C15U G53A,0.912
21,C15U G54A,0.776
22,C15U G54C,1
23,C15U G55A,0.889
24,C15U G55C,0.895

row,Variant,self-cleavage
1,C15U G73A,0.302
2,C15U G73C,0.429
3,C15U G76U,1.2
4,C15U U69G,0.858
5,C15U U72G,0.665
6,C15U U79A,1.11
7,C15U U79C,0.849
8,A16C A42C,0.192
9,A16C A43G,0.138
10,A16C A70C,0.731
11,A16C A78C,0.166
12,A16C A78U,0.256
13,A16C A83G,0.877
14,A16C A87G,0.769
15,A16C C18U,0.375
16,A16C C19U,0.266
17,A16C C21A,0.0437
18,A16C C21G,0.119
19,A16C C21U,0.199
20,A16C C22G,0.0426
21,A16C C26A,0.831
22,A16C C26U,0.886
23,A16C C48A,0.987
24,A16C C49A,0.609

row,Variant,self-cleavage
1,A16C C49G,0.923
2,A16C C49U,0.617
3,A16C C57A,0.852
4,A16C C58A,0.582
5,A16C C61U,0.798
6,A16C C63G,0.633
7,A16C C75A,0.133
8,A16C C75U,0.138
9,A16C C84U,0.727
10,A16C G25C,0
11,A16C G28U,0.0437
12,A16C G29C,0
13,A16C G31C,0.0639
14,A16C G34A,0.18
15,A16C G50U,0.692
16,A16C G52A,0.751
17,A16C G52C,1.04
18,A16C G52U,0.643
19,A16C G53A,0.674
20,A16C G53C,0.475
21,A16C G59C,0.974
22,A16C G80C,0.201
23,A16C G80U,0.171
24,A16C G82A,0.72

row,Variant,self-cleavage
1,A16C U23C,0.87
2,A16C U27G,0.138
3,A16C U37A,0
4,A16C U37C,0.831
5,A16C U37G,0.0923
6,A16C U47A,0.688
7,A16C U60A,1.11
8,A16C U60C,0.369
9,A16C U72A,0.437
10,A16C U79A,1.06
11,A16C U79C,0.8
12,A16G A43C,0.277
13,A16G A45C,0.506
14,A16G A56G,0.864
15,A16G A70C,1.04
16,A16G A70G,1.33
17,A16G A71C,0.575
18,A16G A71U,1.01
19,A16G A77C,0
20,A16G A87G,0.892
21,A16G A87U,0.939
22,A16G C21U,0.0615
23,A16G C22A,0.199
24,A16G C22G,0.185

row,Variant,self-cleavage
1,A16G C30U,0.665
2,A16G C32A,0.107
3,A16G C32G,0.145
4,A16G C32U,0.811
5,A16G C33U,0.802
6,A16G C41U,1.22
7,A16G C44G,0.767
8,A16G C57A,1.18
9,A16G C62U,1.13
10,A16G C63G,0.767
11,A16G C64U,0.942
12,A16G C66U,0.988
13,A16G C75A,0.122
14,A16G C84A,0.7
15,A16G C84U,0.525
16,A16G C86A,0.76
17,A16G C86G,1.2
18,A16G C86U,1.2
19,A16G G17A,0.617
20,A16G G25A,0.192
21,A16G G25U,0.0875
22,A16G G28A,0.131
23,A16G G29U,0.0354
24,A16G G31A,0.46

row,Variant,self-cleavage
1,A16G G35A,0.696
2,A16G G39U,0.582
3,A16G G40C,0.135
4,A16G G54C,1.08
5,A16G G67A,0.886
6,A16G G67U,0.831
7,A16G G73U,0.391
8,A16G G76U,1.29
9,A16G G81C,0.369
10,A16G G81U,0.489
11,A16G U20C,0.128
12,A16G U27A,0.703
13,A16G U46A,0.646
14,A16G U47A,1.16
15,A16G U47C,0.962
16,A16G U60C,1.14
17,A16G U72C,0.831
18,A16U A42C,0.262
19,A16U A45C,0.462
20,A16U A45U,0.831
21,A16U A70U,0.764
22,A16U A71C,0.942
23,A16U A77U,0.511
